Data: patent US7026443
Where two headings read alike, the source gives them in different places.

Key:
HLA-A*2402 (human) = test: inhibition of 125I-labelled standard peptide binding to purified HLA-A*2402, gel filtration
HLA-A*0301 (human) [1] = test: competition with 125I-labelled standard probe peptide for purified HLA-A*0301, gel filtration
HLA-A*0201 (human) [2] = test: competition against 125I-labelled standard peptide on purified HLA-A*0201, gel filtration
HLA-A*0301 (human) [3] = test: competition with a 125I-labelled standard peptide for purified HLA-A*0301, bound and free separated by gel filtration
HLA-A*0301 (human) [4] = test: competition with 125I-labelled standard peptide for purified HLA, gel filtration
HLA-A*3101 (human) = test: as above
HLA-A*3301 (human) = test: as above
HLA-A*1101 (human) [5] = test: as above
HLA-A*6801 (human) = test: as above
HLA-A*0201 (human) [6] = test: as above
HLA-A*0201 (human) [7] = test: competition with 125I-labeled standard probe peptide for purified HLA-A*0201, gel filtration
HLA-A*0301 (human) [8] = test: competition with 125I-labeled standard peptide for purified HLA, gel filtration
HLA-A*1101 (human) [9] = test: as above
HLA-A*0301 (human) [10] = test: competition with 125I-labeled standard probe peptide for purified HLA-A*0301, gel filtration
HLA-A*1101 (human) [11] = molecular target: HLA-A*1101 (human)
HLA-A*1101 (human) [12] = test: inhibition of 125I-labeled standard peptide binding to purified HLA-A*1101, gel filtration
HLA-A*0301 (human) [13] = test: competition with 125I-labelled standard peptide for purified HLA-A*0301, gel filtration
HLA-A*1101 (human) [14] = test: competition with 125I-labeled standard probe peptide for purified HLA-A*1101, gel filtration
HLA-A*0301 (human) [15] = molecular target: HLA-A*0301 (human)
HLA-A*1101 (human) [16] = test: competition with 125I-labeled standard peptide for purified HLA-A*1101, gel filtration
HLA-A*0206 (human) = test: competition with 125I-labelled standard peptide on purified HLA, gel filtration; conditions: remark: other sources report otherwise
HLA-A*0201 (human) [17] = test: as above; conditions: remark: other sources report otherwise
HLA-A*0203 (human) = test: as above; conditions: remark: other sources report otherwise

CMCCKCEARI (modifications not checked) [… (HPV18 E7, position 63, 10 amino acids)]
relative binding ratio (IC50 of standard peptide / IC50 of test peptide) (HLA-A*2402 (human)): 0.0001

EGTGCNGWF (modifications not checked) [HPV16 E1 peptide … (position 11, 9 amino acids)]
binding affinity ratio relative to the standard peptide (IC50 standard / IC50 test) (HLA-A*0301 (human) [1]): 0.0008

LLCVSPMCM (modifications not checked) [HPV16 E1 297 …]
relative binding ratio (IC50 of standard peptide / IC50 of test peptide) (HLA-A*0201 (human) [2]): 0.0008

EGTGCNGWFY (modifications not checked) [HPV18 E1 peptide … (position 10, 10 amino acids)]
relative binding ratio (IC50 of standard peptide / IC50 of test peptide) (ratio to standard peptide) (HLA-A*0301 (human) [3]): 0.0005

CMSCCRSSR (modifications not checked)
binding affinity ratio (IC50 of standard peptide / IC50 of test peptide) (HLA-A*0301 (human) [4]): 0.0033
binding affinity ratio (IC50 of standard peptide / IC50 of test peptide) (HLA-A*3101 (human)): 0.082
binding affinity ratio (IC50 of standard peptide / IC50 of test peptide) (HLA-A*3301 (human)): 0.12
binding affinity ratio (IC50 of standard peptide / IC50 of test peptide) (HLA-A*1101 (human) [5]): 0.0001
binding affinity ratio (IC50 of standard peptide / IC50 of test peptide) (HLA-A*6801 (human)): 0.0011

ILLTTNIHPA (modifications not checked) [HPV18 E1 569 peptide …]
binding affinity ratio (IC50 of standard peptide / IC50 of test peptide) (HLA-A*0201 (human) [6]): 0.08

STLRLCVQST (modifications not checked) [HPV31 E7 peptide … (position 63, 10 amino acids)]
relative binding ratio (IC50 of standard peptide / IC50 of test peptide) (HLA-A*0201 (human) [7]): 0.0012

NVLKTSNAK (modifications not checked) [HPV16 E1 peptide … (position 196, 9 amino acids)]
relative binding ratio (IC50 of standard peptide / IC50 of test peptide) (HLA-A*0301 (human) [8]): 0.0005
relative binding ratio (IC50 of standard peptide / IC50 of test peptide) (HLA-A*1101 (human) [9]): 0.0015
binding affinity ratio (IC50 of the standard peptide / IC50 of the test peptide) (HLA-A*0301 (human) [10]): 0.0005

LLITSNINA (modifications not checked) [HPV16 E1 562 …]
relative binding ratio (IC50 of standard peptide / IC50 of test peptide) (HLA-A*0201 (human) [2]): 0.0022

KISEYRHYCY (modifications not checked) [… (HPV16 E6, position 79, 10 amino acids)]
binding affinity ratio (IC50 of standard peptide / IC50 of test peptide) (ratio to standard peptide) (HLA-A*1101 (human) [11]): 0.0038
relative binding ratio (IC50 of standard peptide / IC50 of test peptide) (HLA-A*0101 (human)): 0.009

GDTPEWIQR (modifications not checked) [HPV16 E1 334 …]
relative binding ratio (IC50 of standard peptide / IC50 of test peptide) (HLA-A*1101 (human) [12]): 0.0002
binding affinity ratio (IC50 of standard peptide / IC50 of test peptide) (ratio to standard peptide) (HLA-A*0301 (human) [13]): 0.0008

GDTPEWIQR (modifications not checked) [HPV45 E1 327 … (SEQ ID NO: 43619)]
relative binding ratio (IC50 of standard peptide / IC50 of test peptide) (HLA-A*1101 (human) [14]): 0.0002

EGTGCNGWFY (modifications not checked) [HPV16 E1 peptide … (position 11, 10 amino acids)]
binding affinity ratio relative to the standard peptide (IC50 standard / IC50 test) (HLA-A*0301 (human) [1]): 0.0005

DCATMCRHY (modifications not checked) [HPV16 E1 peptide … (position 404, 9 amino acids)]
relative binding ratio (IC50 of standard peptide / IC50 of test peptide) (ratio to standard peptide) (HLA-A*0301 (human) [15]): 0.0001
relative binding ratio (IC50 of standard peptide / IC50 of test peptide) (ratio to standard peptide) (HLA-A*0101 (human)): 0.0011

EGTGCNGWF (modifications not checked) [HPV18 E1 peptide … (position 10, 9 amino acids)]
relative binding ratio (IC50 of standard peptide / IC50 of test peptide) (ratio to standard peptide) (HLA-A*0301 (human) [3]): 0.0008

WPYLESRITV (modifications not checked) [HPV18 E1 583 peptide …]
binding affinity ratio (IC50 of standard peptide / IC50 of test peptide) (HLA-B*5401 (human)): 0.024
binding affinity ratio (IC50 of standard peptide / IC50 of test peptide) (HLA-B*3501 (human)): 0.0066
binding affinity ratio (IC50 of standard peptide / IC50 of test peptide) (HLA-B*5301 (human)): 0.014
binding affinity ratio (IC50 of standard peptide / IC50 of test peptide) (HLA-B*5101 (human)): 0.055
binding affinity ratio (IC50 of standard peptide / IC50 of test peptide) (HLA-B*0702 (human)): 0.0067

KLLSKLLCV (modifications not checked) [HPV16 E1 292 …]
relative binding ratio (IC50 of standard peptide / IC50 of test peptide) (HLA-A*0201 (human) [2]): 0.051

LSFVCPWCA (modifications not checked) [HPV45 E7 peptide … (position 95, 9 amino acids)]
relative binding ratio (IC50 of the standard peptide / IC50 of the test peptide) (HLA-A*0301 (human) [3]): 0.0005

GVLILALLR (modifications not checked) [HPV45 E1 265 … (SEQ ID NO: 43630)]
relative binding ratio (IC50 of standard peptide / IC50 of test peptide) (HLA-A*1101 (human) [14]): 0.14

LILALLRYK (modifications not checked) [HPV45 E1 267 peptide … (SEQ ID NO: 43681)]
relative binding ratio (IC50 of standard peptide / IC50 of test peptide) (HLA-A*1101 (human) [16]): 0.18

YAVCDKCLK (modifications not checked)
binding affinity ratio (IC50 of standard peptide / IC50 of test peptide) (HLA-A*0301 (human) [4]): 0.0003
binding affinity ratio (IC50 of standard peptide / IC50 of test peptide) (HLA-A*3101 (human)): 0.0015
binding affinity ratio (IC50 of standard peptide / IC50 of test peptide) (HLA-A*1101 (human) [5]): 0.001
binding affinity ratio (IC50 of standard peptide / IC50 of test peptide) (HLA-A*6801 (human)): 0.012

TLGIVCPI (modifications not checked) [HPV16 E7 86 TLGIVCPI]
binding affinity ratio (IC50 of standard peptide / IC50 of test peptide) (HLA-A*0206 (human)): 0.54
binding affinity ratio (IC50 of standard peptide / IC50 of test peptide) (HLA-A*0201 (human) [17]): 0.15
binding affinity ratio (IC50 of standard peptide / IC50 of test peptide) (HLA-A*0203 (human)): 0.0005

QPFILYAHI (modifications not checked) [HPV18 E1 263 peptide …]
binding affinity ratio (IC50 of standard peptide / IC50 of test peptide) (HLA-B*5401 (human)): 0.0034
binding affinity ratio (IC50 of standard peptide / IC50 of test peptide) (HLA-B*3501 (human)): 0.0003
binding affinity ratio (IC50 of standard peptide / IC50 of test peptide) (HLA-B*5301 (human)): 0.0017
binding affinity ratio (IC50 of standard peptide / IC50 of test peptide) (HLA-B*5101 (human)): 0.21
binding affinity ratio (IC50 of standard peptide / IC50 of test peptide) (HLA-B*0702 (human)): 0.0002

TLRLCVQST (modifications not checked) [HPV31 E7 peptide … (position 64, 9 amino acids)]
relative binding ratio (IC50 of standard peptide / IC50 of test peptide) (HLA-A*0201 (human) [7]): 0.0061

NAKAAMLAK (modifications not checked) [HPV16 E1 peptide … (position 202, 9 amino acids)]
relative binding ratio (IC50 of standard peptide / IC50 of test peptide) (HLA-A*0301 (human) [8]): 0.0005
relative binding ratio (IC50 of standard peptide / IC50 of test peptide) (HLA-A*1101 (human) [9]): 0.0031
binding affinity ratio (IC50 of the standard peptide / IC50 of the test peptide) (HLA-A*0301 (human) [10]): 0.0005

ILYAHIQCL (modifications not checked) [HPV18 E1 266 peptide …]
binding affinity ratio (IC50 of standard peptide / IC50 of test peptide) (HLA-A*0201 (human) [6]; remark: other sources report otherwise): 0.081

LIRCINCQK (modifications not checked)
binding affinity ratio (IC50 of standard peptide / IC50 of test peptide) (HLA-A*0301 (human) [4]): 0.0025
binding affinity ratio (IC50 of standard peptide / IC50 of test peptide) (HLA-A*3101 (human)): 0.0012
binding affinity ratio (IC50 of standard peptide / IC50 of test peptide) (HLA-A*3301 (human)): 0.0041
binding affinity ratio (IC50 of standard peptide / IC50 of test peptide) (HLA-A*1101 (human) [5]): 0.0009
binding affinity ratio (IC50 of standard peptide / IC50 of test peptide) (HLA-A*6801 (human)): 0.0021

IAEGFKTLI (modifications not checked) [HPV18 E1 254 peptide …]
binding affinity ratio (IC50 of standard peptide / IC50 of test peptide) (HLA-A*0201 (human) [6]): 0.0003

HYSDSVYGDTL (modifications not checked) [… (HPV18 E6, position 80, 11 amino acids)]
relative binding ratio (IC50 of standard peptide / IC50 of test peptide) (HLA-A*2402 (human)): 0.0069

GTGCNGWFYV (modifications not checked) [HPV31 E1 peptide … (position 11, 10 amino acids)]
relative binding ratio (IC50 of standard peptide / IC50 of test peptide) (ratio to standard peptide) (HLA-A*0201 (human) [7]): 0.0006

KAAMLAKFK (modifications not checked) [HPV16 E1 204 …]
relative binding ratio (IC50 of standard peptide / IC50 of test peptide) (HLA-A*1101 (human) [12]): 0.18
binding affinity ratio (IC50 of standard peptide / IC50 of test peptide) (ratio to standard peptide) (HLA-A*0301 (human) [13]): 0.11

NINAGTDSR (modifications not checked) [HPV16 E1 peptide … (position 567, 9 amino acids)]
relative binding ratio (IC50 of standard peptide / IC50 of test peptide) (HLA-A*0301 (human) [8]): 0.0005
relative binding ratio (IC50 of standard peptide / IC50 of test peptide) (HLA-A*1101 (human) [9]): 0.0002
binding affinity ratio (IC50 of the standard peptide / IC50 of the test peptide) (HLA-A*0301 (human) [10]): 0.0005

IHDIILECVY (modifications not checked) [… (HPV16 E6, position 30, 10 amino acids)]
relative binding ratio (IC50 of standard peptide / IC50 of test peptide) (HLA-A*0101 (human)): 0.028

WLQPLADAK (modifications not checked) [HPV31 E1 489 peptide … (SEQ ID NO: 41921)]
relative binding ratio (IC50 of standard peptide / IC50 of test peptide) (HLA-A*1101 (human) [14]): 0.0002

QPPKLRSSVA (modifications not checked) [HPV18 E1 315 peptide …]
binding affinity ratio (IC50 of standard peptide / IC50 of test peptide) (HLA-B*5401 (human)): 0.039
binding affinity ratio (IC50 of standard peptide / IC50 of test peptide) (HLA-B*3501 (human)): 0.0003
binding affinity ratio (IC50 of standard peptide / IC50 of test peptide) (HLA-B*5301 (human)): 0.0002
binding affinity ratio (IC50 of standard peptide / IC50 of test peptide) (HLA-B*5101 (human)): 0.0002

EGTGCNGWF (modifications not checked) [HPV45 E1 peptide … (position 10, 9 amino acids)]
binding affinity ratio (IC50 of standard peptide / IC50 of test peptide) (ratio to standard peptide) (HLA-A*0301 (human) [1]): 0.0008

LACSWGMVV (modifications not checked) [HPV16 E1 267 …]
relative binding ratio (IC50 of standard peptide / IC50 of test peptide) (HLA-A*0201 (human) [2]): 0.0006

GMVVLLLVR (modifications not checked) [HPV16 E1 272 …]
relative binding ratio (IC50 of standard peptide / IC50 of test peptide) (HLA-A*1101 (human) [12]): 0.0082
binding affinity ratio (IC50 of standard peptide / IC50 of test peptide) (ratio to standard peptide) (HLA-A*0301 (human) [13]): 0.0036
